Measured values taken from patent US20240383982A1 (Genmab, published 2024).

B1: bsIgG1-huCD3-H101G-FEALxB7H4-C1-N52S-FEAR (bispecific antibody)
heavy 1: not shown
light 1: not shown
heavy 2: QVQLQQWGAGLLKPSETLSLTCAVYGGSFSGYYWSWIRQPPGKGLEWIGEISHSGSTNYNPSLKSRVTISIDTSKNQFSLKLTSVTAADTAVFYCARGLFNWNFDSWGQGTLVTVSSASTKGPSVFPLAPSSKSTSGGTAALGCLVKDYFPEPVTVSWNSGALTSGVHTFPAVLQSSGLYSLSSVVTVPSSSLGTQTYICNVNHKPSNTKVDKRVEPKSCDKTHTCPPCPAPEFEGGPSVFLFPPKPKDTLMISRTPEVTCVVVAVSHEDPEVKFNWYVDGVEVHNAKTKPREEQYNSTYRVVSVLTVLHQDWLNGKEYKCKVSNKALPAPIEKTISKAKGQPREPQVYTLPPSREEMTKNQVSLTCLVKGFYPSDIAVEWESNGQPENNYKTTPPVLDSDGSFFLYSRLTVDKSRWQQGNVFSCSVMHEALHNHYTQKSLSLSPGK
light 2: DIQMTQSPSSLSASVGDRVTITCRASQGIRNDLGWYQQKPGKAPKRLIYGASSLQSGVPSRFSGSGSGTEFTLTISSLQPEDFATYYCLQHNSYPRTFGQGTTVEIKRTVAAPSVFIFPPSDEQLKSGTASVVCLLNNFYPREAKVQWKVDNALQSGNSQESVTEQDSKDSTYSLSSTLTLSKADYEKHKVYACEVTHQGLSSPVTKSFNRGEC
notes: also called bslgG1-huCD3-H101G-FEALxB7H4-C1-N52S-FEAR; BslgG1-huCD3-H101G-FEALxB7H4-C1-N52S-FEAR
B2: IgG1-B7H4-C1-N52S-FEAR (antibody, V domains shown)
VH: QVQLQQWGAGLLKPSETLSLTCAVYGGSFSGYYWSWIRQPPGKGLEWIGEISHSGSTNYNPSLKSRVTISIDTSKNQFSLKLTSVTAADTAVFYCARGLFNWNFDSWGQGTLVTVSS
VL: DIQMTQSPSSLSASVGDRVTITCRASQGIRNDLGWYQQKPGKAPKRLIYGASSLQSGVPSRFSGSGSGTEFTLTISSLQPEDFATYYCLQHNSYPRTFGQGTTVEIKR
notes: Full length human IgG1 with L234F, L235E, D265A, K409R (FEAR) heavy chain constant region and kappa light chain; bivalent, monospecific; also called IgG1-B7H4-C1-052S-FEAR

Assays:
[1] = target: T1, human B7H4, full length, on cells (human, UniProt Q7Z7D3 25-282); experiment: flow cytometry, HEK-293F cells transiently transfected with human B7H4, PE anti-human IgG F(ab')2 [panel Human B7H4]
T1 construct: Uniprot Q7Z7D3; Used for transfected HEK cells and for the B7H4-expressing human tumor cell lines (endogenous B7H4); also called VTCN1
T1 sequence: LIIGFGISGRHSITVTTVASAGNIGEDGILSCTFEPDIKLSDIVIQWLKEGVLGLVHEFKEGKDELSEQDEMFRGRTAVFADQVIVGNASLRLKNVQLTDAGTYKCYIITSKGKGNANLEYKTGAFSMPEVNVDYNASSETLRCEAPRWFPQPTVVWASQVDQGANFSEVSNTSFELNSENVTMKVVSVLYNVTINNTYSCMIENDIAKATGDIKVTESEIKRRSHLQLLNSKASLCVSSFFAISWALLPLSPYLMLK
Procedure: (§1) Cells (3×10⁴ cells/well) were incubated in polystyrene 96-well round-bottom plates (Greiner bio-one, cat. no. 650180) with serial dilutions of antibodies (ranging from 0.000458 to 30 μg/mL in 4-fold dilution steps) in 100 μL PBS/0.1% BSA/0.02% azide (staining buffer) at 4° C. for 30 min. Experiments were performed in technical duplicate. After washing twice in staining buffer, cells were incubated in 50 μL secondary antibody at 4° C. for 30 min. As a secondary antibody, R-Phycoerythrin (PE)-conjugated goat-anti-human IgG F(ab′)₂ (1:500 in FACS buffer; Jackson ImmunoResearch Laboratories, Inc., West Grove, PA, cat. no. 109-116-098), was used. Cells were washed twice in staining buffer, re-suspended in 30 μL FACS buffer containing Topro-3 (1:10,000 dilution) and analyzed on an iQue Screener (Intellicyt Corporation, USA). Binding curves were analyzed using non-linear regression (sigmoidal dose-response with variable slope) using GraphPad Prism V7.02 software (GraphPad Software, San Diego, CA, USA).

[2] = target: T2, recombinant hIgG1 Fc-tagged cynomolgus monkey B7H4 (Creative BioMart, cat. no. VTCN1-1517R) (cynomolgus monkey, UniProt Q7Z7D3 25-259 (human entry)); experiment: BLI (Octet HTX); Fc-tagged cynomolgus B7H4 coupled to AR2G sensor, bispecific antibody in solution (monovalent B7H4 binding); 2nd experiment (average of n = 3)
T2 construct: Bought protein; also called cynomolgus monkey B7H4 extracellular domain
T2 sequence: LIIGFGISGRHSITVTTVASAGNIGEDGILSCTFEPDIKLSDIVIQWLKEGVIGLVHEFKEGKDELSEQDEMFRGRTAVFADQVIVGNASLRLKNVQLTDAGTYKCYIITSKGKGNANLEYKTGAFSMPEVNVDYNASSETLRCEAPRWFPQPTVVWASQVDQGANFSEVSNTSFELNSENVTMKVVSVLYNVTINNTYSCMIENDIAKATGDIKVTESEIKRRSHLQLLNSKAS
Procedure: In addition, the affinity of for cynomolgus monkey B7H4 was determined by BLI. […] Amine Reactive 2nd Generation (AR2G) biosensors (FortéBio, cat. no. 18-5092) were activated by reaction with 20 mM EDC (N-(3-Dimethylaminopropyl)-N′-ethylcarbodiimide hydrochloride) (FortéBio, cat. no. 18-1033) and 10 mM s-NHS (N-hydroxysulfosuccinimide sodium salt) (FortéBio, cat. no. 18-1067) for 300 s. The activated sensors were loaded with 10 μg/mL recombinant hIgG1 Fc-tagged cynomolgus monkey B7H4 (Creative BioMart, cat. no. VTCN1-1517R) in 10 mM Sodium Acetate pH 4.0 (FortéBio, cat. no. 18-1068) for 600 s and quenched with 1 M ethanolamine pH 8.5 (FortéBio, cat. no. 18-1071) for 300 s. […] A molecular mass of 150 kDa of the antibodies was used for calculations. For each antibody a reference sensor was used, which was incubated with Sample Diluent instead of antibody.
Data were acquired using Data Acquisition Software v9.0.0.49d (FortéBio) and analyzed with Data Analysis Software v9.0.0.12 (FortéBio). Data traces were corrected per antibody by subtraction of the reference sensor. The Y-axis was aligned to the last 10 s of the baseline, Interstep Correction alignment to dissociation and Savitzky-Golay filtering were applied. Data traces with a response<0.05 nm were excluded from analysis. The data was fitted with the 1:1 Global Full fit model using a window of interest for the association and dissociation times set at 100 s and 200 s respectively.
The experiment was performed as described above, with some small exceptions.

[3] = target: T1, human B7H4, full length, on cells; experiment: cell-based or functional assay
[4] = target: T1, human B7H4, full length, on cells; experiment: flow cytometry on MDA-MB-468 tumor cells [panel MDA-MB-468]
Procedure: as §1
Binding was analyzed by flow cytometry as described above.

[5] = target: T3, pig (Sus scrofa) B7H4, full length, on HEK-293F cells (pig, UniProt Q7Z7D3 26-282 (human entry)); experiment: flow cytometry, HEK-293F cells transiently transfected with pig B7H4, PE anti-human IgG F(ab')2 [panel Pig B7H4]
T3 construct: Uniprot F1SAY4; also called pig B7H4
T3 chain: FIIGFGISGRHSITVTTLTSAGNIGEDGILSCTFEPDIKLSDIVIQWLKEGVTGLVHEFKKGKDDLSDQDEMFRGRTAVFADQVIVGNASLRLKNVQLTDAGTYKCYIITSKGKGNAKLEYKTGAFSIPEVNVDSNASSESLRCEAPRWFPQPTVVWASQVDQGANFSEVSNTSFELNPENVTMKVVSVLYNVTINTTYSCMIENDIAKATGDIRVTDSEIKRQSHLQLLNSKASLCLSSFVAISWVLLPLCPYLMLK
Procedure: as §1

Row | Binder | EC50 (read off the curve) [1] [µg/mL] | Kd [2] [nM] | koff [2] [s⁻¹] | kon [2] [M⁻¹ s⁻¹] | IC50 of T cell-mediated cytotoxicity, HCC1954 cells, highest of 4 donors [3] [µg/mL] | IC50 of T cell-mediated cytotoxicity, HCC1954 cells, lowest of 4 donors [3] [µg/mL] | IC50 of T cell-mediated cytotoxicity, MCF7 cells, highest of 4 donors [3] [µg/mL] | IC50 of T cell-mediated cytotoxicity, MCF7 cells, lowest of 4 donors [3] [µg/mL] | IC50 of T cell-mediated cytotoxicity, MDA-MB-468 cells, highest of 4 donors [3] [µg/mL] | IC50 of T cell-mediated cytotoxicity, MDA-MB-468 cells, lowest of 4 donors [3] [µg/mL] | IC50 of T cell-mediated cytotoxicity, NCI-H16650 cells, highest of 4 donors [3] [µg/mL] | IC50 of T cell-mediated cytotoxicity, NCI-H16650 cells, lowest of 4 donors [3] [µg/mL] | IC50 of T cell-mediated cytotoxicity, OVCAR3 cells, highest of 4 donors [3] [µg/mL] | IC50 of T cell-mediated cytotoxicity, OVCAR3 cells, lowest of 4 donors [3] [µg/mL] | IC50 of T cell-mediated cytotoxicity, SK-BR3 cells, highest of 4 donors [3] [µg/mL] | IC50 of T cell-mediated cytotoxicity, SK-BR3 cells, lowest of 4 donors [3] [µg/mL] | EC50 (read off the curve) [4] [µg/mL] | binding result [5]
1 | B1 | ~0.9 | 25 | 0.0027 | 120000 | 0.22 | 0.06 | 1.29 | 0.55 | 0.16 | 0.08 | 5.07 | 1.67 | 1.63 | 0.09 | 0.22 | 0.09 | – | –
2 | B2 | ~0.3 | – | – | – | – | – | – | – | – | – | – | – | – | – | – | – | ~1 | binds
